According to patent US20180010135:

Test system: phiC31 integrase (Streptomyces phage phiC31?)
Assay: cell_activity
Settings: in E. coli, 1% L-arabinose, 32 C, 60-120 min; intramolecular attB x attP recombination giving minicircle

“phiC31 attB x attP sites flanking expression cassette (pBAD.phiC31.RHB)” was tested, and the activity (% recombination) was over 97.
